From article PMC6754406, “Ran pathway-independent regulation of mitotic Golgi disassembly by Importin-α” (Nature Communications, 2019) come the findings set out here.

For one data set, the target named is T1, Importin-β (Homo sapiens, UniProt Q14974).
T1 construct: GST (N, cleaved yes); made in house; host or cells: Escherichia coli Rosetta
Kind of data set: GST pulldown of Importin-β with RanQ69L (dissociation). The settings on record: GM130:RanQ69L:Importin 1:4:1; three independent experiments. It counts as binding. On the procedure:
Fig. 4 Ran and a phosphate moiety repress GM130 and Importin-β interaction. a SEC (Superdex 200) elution profiles for the Importin-β•GST-GM130-WT complex (black line), Importin-β (gray line), and GST-GM130-WT (light gray line). The void volume (Vo) is indicated. b–d The peak fractions of the Importin-β•GST-GM130-WT complex (b), Importin-β (c), and GST-GM130-WT (d) were analyzed by SDS–PAGE and stained with Coomassie blue. e, f ITC titration curves (upper) and binding isotherms (lower) of Importin-β with GM130-NLS WT (e) and GM130-NLS phospho-S25 (f). Kd values are indicated. g Competition binding assay. GST-GM130-S25D and Importin-β were incubated with indicated concentrations of GFP-IBB. Samples pulled down by GST beads were analyzed by SDS–PAGE and stained with Coomassie blue. […] GST-bound samples were analyzed by SDS–PAGE and stained with Coomassie blue. i, k Band intensities of Importin-α or Importin-β from the SDS–PAGE gels in h, j were used to determine averages of bound protein. […]
A 1:1 molar ratio of GST-GM130-WT or mutant GM130 and Importin-α FL was incubated with glutathione-coupled sepharose beads (GE Healthcare). After pre-washing with 150 mM NaCl, proteins were eluted by a buffer containing 50 mM reduced glutathione and analyzed by SDS–PAGE. […]

In another data set the test system is p115-CTD. Kind of data set: Competition binding assay, p115-CTD remaining on GST-GM130 in presence of Importin-α FL. The settings on record: 40 μM Importin-α FL; three independent experiments. On the procedure:
Fig. 3 GM130 interacts with full-length Importin-α. a, b ITC titration curves (upper) and binding isotherms (lower) of Importin-α FL with GM130-NLS WT (a) and GM130-NLS phospho-S25 (b). Kd values are indicated. c Pulldown assays of Importin-α FL with GM130-WT or GM130-S25D. GST-tagged GM-130-WT or GM130-S25D was incubated with Importin-α FL. GST-bound samples were analyzed by SDS–PAGE and stained with Coomassie blue. d Competition binding assay. p115-CTD was incubated with either GST-GM130-WT or GST-GM130-S25D in the presence of indicated concentrations of Importin-α FL. Samples pulled down by GST beads were analyzed by SDS–PAGE and stained with Coomassie blue. e, f Band intensities of Importin-α FL and p115-CTD from the SDS–PAGE gels in d were quantified and normalized by GST-GM130 intensity. Quantitative plots show normalized Importin-α FL intensities (e) and percent p115-CTD remaining on GM130 (f).
To examine whether Importin-α FL also competes with p115-CTD for GM130 binding, we carried out competition binding assays in the presence of Importin-α FL, p115-CTD, and GM130. […] Moreover, we observed a ~2-fold increase in Importin-α FL pulldown by the phosphomimetic mutant (GM130-S25D) compared to wild-type GM130 (40 μM Importin-α FL; Fig. 3d, e). […]

Another data set concerns Importin-α (a.a. 70–498). Kind of data set: CD spectra thermal melting assay of complexes with Importin-α. The settings on record: CD at 222 nm, 20 to 75 °C, 0.2 mg/ml, 20 mM HEPES pH 7.4, 50 mM NaCl, 3 mM DTT; average of three scans; complex with Importin-α (a.a. 70–498). The data set is classed as physicochemical. On the procedure: The CD spectra of the GM130-WT(1–48)•Importin-α (a.a. 70–498), GM130-S25D(1–48)•Importin-α (a.a. 70–498), and GM130-NLS phospho-S25 (a.a. 13–38)•Importin-α (a.a. 70–498) complexes were recorded using an AVIV CD400 spectrometer. Thermal melting temperatures were determined by measuring the ellipticity at a wavelength of 222 nm as a function of temperature from 20 to 75 °C. The protein concentration used in the CD measurements was 0.2 mg/ml in a buffer of 20 mM HEPES (pH 7.4), 50 mM NaCl, and 3 mM DTT. Measurements were taken three times and averaged.

T1 sequence (Q14974 whole entry): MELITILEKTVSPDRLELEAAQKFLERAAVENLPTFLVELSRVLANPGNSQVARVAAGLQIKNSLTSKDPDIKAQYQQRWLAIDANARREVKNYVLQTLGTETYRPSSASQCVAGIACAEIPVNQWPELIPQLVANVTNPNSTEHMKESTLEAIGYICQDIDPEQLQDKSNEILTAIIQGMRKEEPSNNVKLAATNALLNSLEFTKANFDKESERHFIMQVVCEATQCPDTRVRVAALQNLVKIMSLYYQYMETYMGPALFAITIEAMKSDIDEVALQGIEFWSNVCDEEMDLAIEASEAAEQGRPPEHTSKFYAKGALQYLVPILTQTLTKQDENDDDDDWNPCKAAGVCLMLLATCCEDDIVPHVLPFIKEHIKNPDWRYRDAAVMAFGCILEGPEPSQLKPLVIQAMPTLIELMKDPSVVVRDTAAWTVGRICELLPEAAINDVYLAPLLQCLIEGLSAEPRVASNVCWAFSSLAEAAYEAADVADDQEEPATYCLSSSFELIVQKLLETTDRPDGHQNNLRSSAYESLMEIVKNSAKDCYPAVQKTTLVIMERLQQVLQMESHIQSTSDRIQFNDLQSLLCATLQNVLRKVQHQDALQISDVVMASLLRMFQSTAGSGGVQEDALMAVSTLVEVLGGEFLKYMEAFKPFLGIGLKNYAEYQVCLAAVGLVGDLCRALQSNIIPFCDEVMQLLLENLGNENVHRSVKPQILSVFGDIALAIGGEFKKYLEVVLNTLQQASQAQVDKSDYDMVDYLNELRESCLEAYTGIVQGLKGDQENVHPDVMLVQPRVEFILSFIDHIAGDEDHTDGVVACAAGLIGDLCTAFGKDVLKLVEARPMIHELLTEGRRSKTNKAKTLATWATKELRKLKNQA

B1: GM130-WT: wild type GM130 N-terminal region (a.a. 1-85) (protein)
chain: MWPQPRLPPRPAMSEETRQSKLAAAKKKLREYQQRNSPGVPTGAKKKKKIKNGSNPETTTSGGCHSPEDTPKDNAATLQPSDDTVLPGGVPSPGASLTSMAASQNHDADNVPNLMDETKTFSSTESLRQLSQQLNGLVCESATCVNGEGPASSANLKDLESRYQQLAVALDSSYVTNKQLNITIEKLKQQNQEITDQLEEEKKECHQKQGALREQLQVHIQTIGILVSEKAELQTALAHTQHAARQKEGESEDLASRLQYSRRRVGELERALSAVSTQQKKADRYNKELTKERDALRLELYKNTQSNEDLKQEKSELEEKLRVLVTEKAGMQLNLEELQKKLEMTELLLQQFSSRCEAPDANQQLQQAMEERAQLEAHLGQVMESVRQLQMERDKYAENLKGESAMWRQRMQQMSEQVHTLREEKECSMSRVQELETSLAELRNQMAEPPPPEPPAGPSEVEQQLQAEAEHLRKELEGLAGQLQAQVQDNEGLSRLNREQEERLLELERAAELWGEQAEARRQILETMQNDRTTISRALSQNRELKEQLAELQSGFVKLTNENMEITSALQSEQHVKRELGKKLGELQEKLSELKETVELKSQEAQSLQQQRDQYLGHLQQYVAAYQQLTSEKEVLHNQLLLQTQLVDQLQQQEAQGKAVAEMARQELQETQERLEAATQQNQQLRAQLSLMAHPGEGDGLDREEEEDEEEEEEEAVAVPQPMPSIPEDLESREAMVAFFNSAVASAEEEQARLRGQLKEQRVRCRRLAHLLASAQKEPEAAAPAPGTGGDSVCGETHRALQGAMEKLQSRFMELMQEKADLKERVEELEHRCIQLSGETDTIGEYIALYQSQRAVLKERHREKEEYISRLAQDKEEMKVKLLELQELVLRLVGDRNEWHGRFLAAAQNPADEPTSGAPAPQELGAANQQGDLCEVSLAGSVEPAQGEAREGSPRDNPTAQQIMQLLREMQNPRERPGLGSNPCIPFFYRADENDEVKITVI
In the case of B1, the “release of Importin-β from Importin-β•GM130 complex by RanQ69L” value with Importin-β was ~ 47%. For the same molecule, in the data set on p115-CTD, the “p115-CTD remaining on GM130” value is listed as ~ 38%. The Tm in the data set with Importin-α (a.a. 70–498) is ~ 44 °C.
